The record followed here is patent publication US20260116965A1 (COHERENT BIOPHARMA SUZHOU, published 2026).

The target of this test is T1, Transient receptor potential cation channel subfamily V member 6 (TRPV6) protein (human, UniProt Q9H1D0 1-765).
T1 construct: Calcium channel; also called human TRPV6 protein
T1 sequence: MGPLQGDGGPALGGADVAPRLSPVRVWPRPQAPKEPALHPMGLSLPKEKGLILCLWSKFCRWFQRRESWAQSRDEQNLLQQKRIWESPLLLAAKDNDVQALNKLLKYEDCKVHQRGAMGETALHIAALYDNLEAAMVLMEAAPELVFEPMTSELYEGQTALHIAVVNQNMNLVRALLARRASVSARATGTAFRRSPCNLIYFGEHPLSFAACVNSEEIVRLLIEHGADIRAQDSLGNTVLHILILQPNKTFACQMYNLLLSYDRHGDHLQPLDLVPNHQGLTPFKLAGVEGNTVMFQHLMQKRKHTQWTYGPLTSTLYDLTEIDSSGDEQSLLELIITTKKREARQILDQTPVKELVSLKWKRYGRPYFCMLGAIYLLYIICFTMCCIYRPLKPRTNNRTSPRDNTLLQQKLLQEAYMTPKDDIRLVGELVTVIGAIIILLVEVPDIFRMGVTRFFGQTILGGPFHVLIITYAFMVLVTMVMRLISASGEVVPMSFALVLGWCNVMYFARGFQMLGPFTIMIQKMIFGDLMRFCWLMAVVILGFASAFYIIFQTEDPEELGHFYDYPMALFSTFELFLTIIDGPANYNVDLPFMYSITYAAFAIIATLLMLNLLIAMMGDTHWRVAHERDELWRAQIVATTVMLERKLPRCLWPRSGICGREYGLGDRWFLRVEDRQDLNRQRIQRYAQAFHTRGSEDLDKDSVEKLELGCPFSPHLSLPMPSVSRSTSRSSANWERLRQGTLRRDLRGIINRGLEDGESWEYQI
The experiment in a line: IHC on tissue slices.

B1: CB-Anti-0001 antibody (antibody, IgG1, V domains shown)
VH: QVQVQQPGAELVKPGTSVKLSCKASGYTFTSYWMHWVKQRPGQGLEWIGEIDPSDGYTNYNQKFRGKATLSVDKSSTTAYMQLSSLTSEDSAVYYCGWAGDFWGQGTTLTVSS
VL: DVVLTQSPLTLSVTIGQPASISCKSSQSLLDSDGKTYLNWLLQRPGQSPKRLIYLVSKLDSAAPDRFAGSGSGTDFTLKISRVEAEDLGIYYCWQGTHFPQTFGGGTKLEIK
notes: also called antibody of hybridoma cell line 12CT 9.5.1; 12CT9.5.1
For B1, the binding result is listed as “binds”.

B2: CB-Anti-0002 antibody (antibody, IgG1, V domains shown)
VH: EVKLEESGGGLVQPGGSMKLSCVASGFTFSYYWMNWVRQSPEKGLEWVAEIRLKSHNYATHYAESVKGRFTISRDDSKSSVYLQMNNLRSEDTGIYYCARLAYDGERYYYALDYWGQGTSVTVSS
VL: DIVMSQSPSSLAVSVGEKFTMSCKSSQSLLYSNNQKNYLAWYQQKPGQSPKLLIYWASTRESGVPDRFTGSGYGTDFTLTISSVKAEDLAVYYCQQYYSYPFTFGSGTKLEIK
notes: also called antibody of hybridoma cell line 16CT 4.1.1.2; 16CT4.1.1.2
With B2, the binding result is on record as “binds”.
